Here are results for 40 sequences from the nanobody polyreactivity screen of Harvey et al. (2022).

The data set in a line: yeast display, Sf9 membrane polyspecificity reagent, FACS + sequencing; frameworks hold sequencing errors. The method in brief: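 Galactose-induced (36–48 hours) yeast carrying a synthetic nanobody display library were exposed to 10% biotinylated, detergent-solubilized Sf9 membrane reagent at 4 °C for 1 hour. FACS followed streptavidin microbead enrichment, using low and high (top ~1%) gates for expression (anti-HA) and reagent binding (streptavidin). Colony PCR, MiSeq 2 × 250 sequencing and CDR-length filtering followed. Labels for polyreactivity reflect the gate of origin.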
“QVQLVESGGGLVQAGGSLRLSCAASGSIFCSYAMGWYRQAPGKERELVAAITWSGGNTYADSVKGRFTISRDNAKNTDYLQMNSLKPEDTAVYYCAADPAHGTKWYVYPSHDDYWGQGTQGTVSS”: the “polyreactivity (PSR sort gate)” value is listed as “low polyreactivity”. For the sequence “QVQLVESGGGLVQAGGSLRLSCAASGSIFDAYAMGWYRQATGKERELVAAITYSGGSTYYADSVKGRFTISRDNAKNTVYLQMNSLKPEDTAVYYCNTDSRVRTWFRAFTYDSWGQGTQVTVSS”, the “polyreactivity (PSR sort gate)” value was “low polyreactivity”. “QVQLVESGGGLVQAGGSLRLSCAASGSIFDDYAMGWYRQAPGKEREFVATITTSGGNTYYADSVKGRFTISRDNAKNTVYLQMHSLKPEDTAVYYCAKDRVKSPYLVYDSWGQGTQVTVSS”: the “polyreactivity (PSR sort gate)” value is reported as “low polyreactivity”. Regarding “QVQLVESGGGLVQAGGSLRLSCAASGSIFDDYAMGWYRQAPGKERELVAAITSGGSTYYADSVKGRFTISRDNAKNTVYLQMTSLKPEDTAVYYRATRYHWSSTFAPVGAGRGGDSWGQGTQVTVSS”, the “polyreactivity (PSR sort gate)” value is on record as “low polyreactivity”. The entry for “QVQLVESGGGLVQAGGSLRLSCAASGSIFDDYTMVWYRQAPGKEREFVATITSSGSTYYADSVKGRFTISRDNAKNTVYLQMNSLKPEDTAVYYCNADDTYYPLGGITGYDYWGQGTQVTVSS” is “low polyreactivity”; for “QVQLVESGGGLVQAGGSLRLSCAASGSIFDEYAMGWYRQAPGKERELVAAITRTGGRTYYADSVKGRFTISRDNAKNTVYLQMNSLKPEDTAVYYSAKGTNYRDDYWGQGTQVTVSS” it is “low polyreactivity”; for “QVQLVESGGGLVQAGGSLRLSCAASGSIFDEYAMGWYRQAPGKERELVAAITYSGGDTYYADSVKGRFTISRDNAKNTVYLQMNSLKPEDTAVYYCAVDTPLEYYHQQAYVAGEYWGQGTQVTVSS” it is “low polyreactivity”. The result for “QVQLVESGGGLVQAGGSLRLSCAASGSIFDFSAMGWYRQAPGKERELVAAISGSGGSTYYADSVKGRFTISRDNAKNTVYLQMNSLKPEDTAVYYCSYYYWGQGTQVTVSS” reads “low polyreactivity”; that for “QVQLVESGGGLVQAGGSLRLSCAASGSIFDGNAMGWYREAPGKERELVAAISRRAGSTYYADSVKGRFTISRDNAKNTVYLQMNSLNPEDTAVYYCAASLYVPRFSRLGYDYWGQGTHVTVSS”, “high polyreactivity”; that for “QVQLVESGGGLVQAGGSLRLSCAASGSIFDGYGMGWYRQAAGKERELVAGITSGGSTYYADSVKGRFTFSRDNAKNTVYLQMNSLIPEDTAVYYCATVVRYSNARGDYWGQGTQVTVSS”, “low polyreactivity”. The result for “QVQLVESGGGLVQAGGSLRLSCAASGSIFDHYARGWYRQAPGKDRELVAAISRSAGSTYYADSVKGRFTISRDHAKNTVYLQMNSLKPEDTAVYYCAADGKYYHRRPGWPIYDYWGQGTQVTVSS” reads “high polyreactivity”; that for “QVQLVESGGGLVQAGGSLRLSCAASGSIFDINAMGWYRQAPGKERELVADISWSGGRTYYADSVKGRFTISRDNAKNTVYLQMNSLKPEDTAVYYCNAQDSRFWYAEYDYWGQGNQVTVSS”, “low polyreactivity”; that for “QVQLVESGGGLVQAGGSLRLSCAASGSIFDIYAMAWYRQAPGKERELVARIRGSGGRTYYADSVKGRFTISRDNAKNTVYLQMNSLKPEDTAVYYCNAGVRAVNRKYDYWGQGTQVTVSS”, “high polyreactivity”. Take “QVQLVESGGGLVQAGGSLRLSCAASGSIFDIYAMGWYREAPGKERELVAAISGRGGSTYADSVKGRFTISRDNAKNTVYLQMNSLKPEDTAVYYCATERHRFGGLYYWGQGTQVTVSS”: the “polyreactivity (PSR sort gate)” value is listed as “low polyreactivity”. The result for “QVQLVESGGGLVQAGGSLRLSCAASGSIFDIYAMGWYRQAPGKERELVAAISWIGDSTSYAESVKGRFTISRDNAKNTVYLQMNSLKPEDTAVYYCNAVVQGLADFQKYDYWGQGTQVTVSS” reads “low polyreactivity”.

On to “QVQLVESGGGLVQAGGSLRLSCAASGSIFDIYGMGWYRQAPGKERELVASISGGAGSTNYADSVKGRFTISRDNAKNTVYLQMNSLNPEDTAVYYCAAEVYVPDYFQHKFDVEYEYWGQGTQVTVSS”, for which the “polyreactivity (PSR sort gate)” value is recorded as “low polyreactivity”.

Turning to “QVQLVESGGGLVQAGGSLRLSCAASGSIFDLNAMGWYRQAPGKERELVAAISKSGGSTYYADSVKGRFTISRDNAKNTVYLQMNSLKPEDTAVYYCAARYHYPGNWYNYWGQGTQVTVSS”, the “polyreactivity (PSR sort gate)” value is “low polyreactivity”.

For the sequence “QVQLVESGGGLVQAGGSLRLSCAASGSIFDLYAMGWYRQAPGKERELVADISIADSTNYADSVKGRFTISRDNAKNTVYLQMNSLKPEDTGVYYCNADVWWYSYEYDYWGQGTQVTVSS”, the “polyreactivity (PSR sort gate)” value was “low polyreactivity”. The entry for “QVQLVESGGGLVQAGGSLRLSCAASGSIFDLYAMGWYRQAPGTERELVADISIADSTNYADSVKGRFTISRDNAKNTVYLQMNSLKPEDTAVYYCNADVWWYSYEYDYWGQGTQVTVSS” is “low polyreactivity”; for “QVQLVESGGGLVQAGGSLRLSCAASGSIFDNAMGWYRQAPGKERELVAAISLSGSRTYYADSVKGRFTISRDNAKNTDYLQMNSLKPEDTAVYYCNTELVYYSTYDYWGQGTQVTVSS” it is “low polyreactivity”; for “QVQLVESGGGLVQAGGSLRLSCAASGSIFDNNAMGWYRQAPGKERELVAAISRSGGSTYYADSVKGRFTISRDNAKNTVYLQMNSLKPDDTAVYYCAALPSRPRGYDYWGQGTQVTVSS” it is “high polyreactivity”. The result for “QVQLVESGGGLVQAGGSLRLSCAASGSIFDNYAMGWYRQAPGKERELVAAITSSGNTSYADSVKGRFTISRDNAKNTVYLQMNSLKPEDTAVYYCNADSQVKYTYNNHFDYWGQGTQVTVSS” reads “low polyreactivity”; that for “QVQLVESGGGLVQAGGSLRLSCAASGSIFDPNAMGWYRQAPGKERELVAAISTSTGNTYYADSVKGRCTISRDNAKNTVYLQMNSLKPEDTAVYYCAAKGTPSYGSYHYDMDYWGQGTQVTVSS”, “low polyreactivity”. The result for “QVQLVESGGGLVQAGGSLRLSCAASGSIFDPNAMGWYRQAPGKERELVAAITSGGGSTYYADSVKGRFTISRDNAKNTVYLEMNSLKPEDTAVYYCNKVFVLPYKFVAWFDYWGQGTQVTVSS” reads “low polyreactivity”; that for “QVQLVESGGGLVQAGGSLRLSCAASGSIFDPYAMGWYIQAPGKERELVAVINDGGRTTYADSVKGRFTISRDNAKNTVYLQMNSLKPEDTAVYYCAADVGYFKSDYWGQGTQVTVSS”, “low polyreactivity”; that for “QVQLVESGGGLVQAGGSLRLSCAASGSIFDPYAMGWYRQAPGKERELVAAISFRGGGTYYADSVKGRFTISRDNAKNTVYLQMNSLKPEDTAVYYCNVDYYWISGYVGSYIEFDYWGQGTQVTVSS”, “low polyreactivity”. Regarding “QVQLVESGGGLVQAGGSLRLSCAASGSIFDPYAMGWYRQAPGKERELVAAISWSDSSTYYADSVKGRFTISRDNEKNTVYLQMNSLKPEDTAVYYSAAPSRYRYYWGNYWGQGTQVTVSS”, the “polyreactivity (PSR sort gate)” value was “high polyreactivity”. The entry for “QVQLVESGGGLVQAGGSLRLSCAASGSIFDPYAMGWYRQAPGKERELVAAITASGSSTYYADSVKGRFTISRDNAKNTVYLQMNSLKPEDTAVYYCAADRANWEYLLSWLGYDYWGQGTQVTVSS” is “low polyreactivity”. The entry for “QVQLVESGGGLVQAGGSLRLSCAASGSIFDQYTMGWSRQAPGKERELVAAIRFSGGSTSYADSVKGRFTISRDNAKNTVYLQMNSLIPEDTAVYYCNVDAITWWDWEDFDYWGQGTQVTVSS” is “low polyreactivity”; for “QVQLVESGGGLVQAGGSLRLSCAASGSIFDRNAMGRYRQAPGKERELVAAITSGGSTYYADSVKGRFTISRDNAKNTVYFQMNSLKPEDTAVYYCNADTDPPVPLYYWGQGTQVNVSS” it is “low polyreactivity”; for “QVQLVESGGGLVQAGGSLRLSCAASGSIFDRNAMGWYRQAPGKERELVAAISFSGGSTYYADSVKGRFTISRDNAKNTVYLQMNSLKPEDTAVYYCAKAGRYANLPYVYWGQGTQVTVSS” it is “high polyreactivity”. In the case of “QVQLVESGGGLVQAGGSLRLSCAASGSIFDRNAMGWYRQAPGKERELVSAISRGGRTYYADSVKGRFTISRDNAKNTVYLQMNSLKPEDTAVYDCAAGYPSAWAYTTDDYWGQGTQVTVSS”, the “polyreactivity (PSR sort gate)” value is on record as “low polyreactivity”. The result for “QVQLVESGGGLVQAGGSLRLSCAASGSIFDRYAMGWYRQAPGKESELVAAITCGTSTYYADSVKGRFTISRDNAKNTVYLKMNSLKPEDTAVYYCNKGYSSSMDYWGQGTQVTVSS” reads “low polyreactivity”; that for “QVQLVESGGGLVQAGGSLRLSCAASGSIFDSKAMGWFRQGPGKERELVAAINRSDASTYYADSVKGRFTISRDNAKNTVYLQMNSLKPEDTAVYYCAVEVYVYNVDIYDYWGQGTQVTVSS”, “low polyreactivity”. The result for “QVQLVESGGGLVQAGGSLRLSCAASGSIFDSNTMGWYRQAPGKERELVAAITGTGTSTYYADSVKGRFTISRDNAKNTVYLQMNSLKPEDTAVYYCAADLEYKTWWYDYWGQGTQVTVSS” reads “low polyreactivity”; that for “QVQLVESGGGLVQAGGSLRLSCAASGSIFDSYAMGWYRQAPGKERELVAGIDSTGDTSYADSVKGRFTISRDNAKNTVYLQMNSLKPEDTAVYYCAKEYPGDSVQASDEPWGMGYWGQGTQVTVSS”, “low polyreactivity”.

As to “QVQLVESGGGLVQAGGSLRLSCAASGSIFDSYAMGWYRQAPGKERELVATINTSGGSTYYADSVKGRFTIHDNAKNTVYLQKNSLKPEDTAVYYCNAGRWVYWQNNFGDYGYWGQGTQVTVSS”, the “polyreactivity (PSR sort gate)” value is “low polyreactivity”. The entry for “QVQLVESGGGLVQAGGSLRLSCAASGSIFDSYAMGWYRQAPGKERELVATINTSGGSTYYADSVKGRFTIHDNAKNTVYLQMNSLKPEDTAVYYCAVVVHYSTIGGGYRPRMYYWGQGTQVTVSS” is “low polyreactivity”; for “QVQLVESGGGLVQAGGSLRLSCAASGSIFDSYAMGWYRQAPGKERELVAVISESGGTTYYADSVKGRFTISRDNAKNTVYLQMNSLKPEDTAVYYCAAVWYYQFGVWGYYWGQGTQVTVSS” it is “low polyreactivity”. Consider “QVQLVESGGGLVQAGGSLRLSCAASGSIFDSYVMGWYRQAPGKERELVAAITYSGGSTYADSVKGRFTISRDNAKNTVYLQMNSLKPEDTAVYYCAADLSGGSRYDYWGQGTQVTVSS”, for which the “polyreactivity (PSR sort gate)” value was “low polyreactivity”.
